Time to block rolling neutrophils on high density P-selectin data for 1 substance are collected here from patent publication US20110287017A1.

In the assay the target is membrane P-selectin coated in a flow chamber (low and high density) (UniProt P16109). Nature of the assay: cell-based or functional assay.
Chain of membrane P-selectin coated in a flow chamber (low and high density) (P16109 42-830 limits assumed): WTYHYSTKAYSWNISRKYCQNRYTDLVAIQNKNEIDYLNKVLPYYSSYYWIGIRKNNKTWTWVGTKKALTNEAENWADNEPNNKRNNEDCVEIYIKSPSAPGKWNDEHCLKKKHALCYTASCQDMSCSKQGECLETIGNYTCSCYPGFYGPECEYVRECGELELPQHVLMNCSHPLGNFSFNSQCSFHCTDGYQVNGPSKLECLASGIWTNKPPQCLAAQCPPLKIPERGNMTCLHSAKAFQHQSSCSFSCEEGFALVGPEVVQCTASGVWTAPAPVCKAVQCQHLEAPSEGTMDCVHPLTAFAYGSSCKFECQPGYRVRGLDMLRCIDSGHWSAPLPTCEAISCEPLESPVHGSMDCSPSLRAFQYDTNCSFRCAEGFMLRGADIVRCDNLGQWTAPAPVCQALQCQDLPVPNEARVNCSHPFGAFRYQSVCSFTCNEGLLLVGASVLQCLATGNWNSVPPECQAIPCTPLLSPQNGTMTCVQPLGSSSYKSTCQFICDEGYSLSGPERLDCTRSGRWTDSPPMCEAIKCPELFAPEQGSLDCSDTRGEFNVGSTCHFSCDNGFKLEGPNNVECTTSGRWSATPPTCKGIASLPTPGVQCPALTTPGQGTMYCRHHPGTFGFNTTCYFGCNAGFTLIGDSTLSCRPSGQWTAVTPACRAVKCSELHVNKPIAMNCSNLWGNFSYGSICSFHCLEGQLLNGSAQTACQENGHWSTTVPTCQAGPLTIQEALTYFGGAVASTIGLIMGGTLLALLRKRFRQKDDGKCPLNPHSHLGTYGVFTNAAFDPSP

For the substance “G3 mouse monoclonal anti-P-selectin antibody”, the time to block rolling neutrophils on high density P-selectin is less than 20 min.
